Measurements taken from US20230272055A1 (Incyte, published 2023).
Changes are numbered by the printed parent chain.

B1: anti-mutCALR antibody clone 22 (antibody, human IgG1, lambda, V domains shown)
VH: EVQLVQSGAEVKKPGASVKVSCKVSGYTLTELSMQWVRQAPGKGLEWMGGFDPDDGETMYAEKFQGRLTVTEDTSTDTVYMELRSLTSEDTALYFCATSPGYDFFDYWGQGTLVTVSS
VL: SYVLTQPPSVSVAPGKTARITCGGNNIGSKNVHWYQQKPGQAPVLVVYDDSDRPSGIPERFSGSNSGNTATLTINRVEAGDEADYYCQVWDSSNDLLIFGGGTKLTVLG
notes: human IgG1
B2: anti-mutCALR antibody clone 26 (antibody, human IgG1, lambda, V domains shown)
VH: B1 VH
VL: B1 VL with K16Q, N31S, N75S, N94I, L96H, L105V
notes: human IgG1
B3: anti-mutCALR antibody clone 28 (antibody, human IgG1, lambda, V domains shown)
VH: B1 VH
VL: B1 VL with V3E, K16Q, N31S, N75S, S92A, S93D, N94S, L96Q
notes: human IgG1
B4: anti-mutCALR antibody clone 23 (antibody, human IgG1, lambda, V domains shown)
VH: B1 VH
VL: B1 VL with K16Q, S29I, N31S
notes: human IgG1
B5: anti-mutCALR antibody clone 24 (antibody, human IgG1, lambda, V domains shown)
VH: B1 VH with F64L
VL: B1 VL with N31S
notes: human IgG1
B6: anti-mutCALR antibody clone 11 (antibody, human IgG1, lambda, V domains shown)
VH: B1 VH with Q3R
VL: QSALTQPRSVSGSPGQSVTISCTGTSSDVGGYNYVSWYQQHPGKAPKLMIYDVSKRPSGVPDRFSGSNSGNTATLTINRVEAGDEADYYCQVWDSSNDLLIFGGGTKLTVLG
notes: human IgG1
B7: anti-mutCALR antibody clone 25 (antibody, human IgG1, lambda, V domains shown)
VH: B1 VH
VL: B1 VL with V3E, S11A, K16Q, S29R, N31A
notes: human IgG1
B8: anti-mutCALR antibody clone 30 (antibody, human IgG1, lambda, V domains shown)
VH: B1 VH
VL: B1 VL with R19T, S29T, N31S
notes: human IgG1
B9: anti-mutCALR antibody clone 29 (antibody, human IgG1, lambda, V domains shown)
VH: B1 VH
VL: B1 VL with N31S, N75S, N94S, T103A
notes: human IgG1
B10: anti-mutCALR antibody clone 27 (antibody, human IgG1, lambda, V domains shown)
VH: B1 VH
VL: B1 VL with K16Q, S29I, N31S, S51R
notes: human IgG1
B11: anti-mutCALR antibody clone 37 (antibody, human IgG1, lambda, V domains shown)
VH: QVQLVQSGAEVKKPGATVKISCKVSGYSFTDYFIHWVQQAPGKGLAWVGLVDPEDGETIYAEKFQGRVTITADTSTDTAYMELSSLRSEDTAVYYCATPGGILTDPDAFDIWGQGTMVTVSS
VL: QSALTQPASVSGSPGQSITISCTGTSSDVGGYNYVSWYQQHPGKAPKLMIYDVSNRPSGVSNRFSGSKSGNTASLTISGLQAEDEADYYCSSYTSSSTFYVFGTGTKVTVLG
notes: human IgG1
B12: anti-mutCALR antibody clone 33 (antibody, human IgG1, lambda, V domains shown)
VH: B11 VH
VL: QSALTQPRSVSGSPGQSVTISCAGTGSDVGGYNHVSWYQHHPGKAPKLMIYDVNKRPSGVPDRFSGSKSGNTASLTISGLQAEDEADYYCSSYIPSSTRWVFGGGTKLTVLG
notes: human IgG1
B13: anti-mutCALR antibody clone 35 (antibody, human IgG1, lambda, V domains shown)
VH: B11 VH with K63R
VL: B11 VL with D52E, F99P
notes: human IgG1
B14: anti-mutCALR antibody clone 48 (antibody, human IgG1, lambda, V domains shown)
VH: EVQLVQSGAEVKKPGSSVKVSCKASGGTFSSYAISWVRQAPGQGLEWMGGIIPIFGTANYAQKFQGRVTITADESTSTAYMELSSLRSEDTAVYYCASSPLRGSGWYWHYYYGMDVWGQGTTVTVSS
VL: SYVLTQPPSVSVAPGKTARITCGGNNIGSKSVHWYQQKPGQAPVLVIYQDRKRPSGIPERFSGSNSGNTATLTISGTQAMDEADYYCQAWDSSTAVFGGGTKLTVLG
notes: human IgG1
B15: anti-mutCALR antibody clone 49 (antibody, human IgG1, lambda, V domains shown)
VH: B14 VH
VL: SYELTQPPSVSVAPGKTARITCGGNNIRAKHVHWYQQKPGQSPVLVIYQDSKRPSGIPERFSGSNSGSTATLTISRVEAGDEADYYCQVWDSSTVVFGGGTKLTVLG
notes: human IgG1
B16: anti-mutCALR antibody clone 47 (antibody, human IgG1, lambda, V domains shown)
VH: B14 VH
VL: B15 VL with N26K, R28G, A29T, H31S, S42A, Q49R, K52N, S68N, V77A, E78Q
notes: human IgG1
B17: anti-mutCALR antibody clone 45 (antibody, human IgG1, lambda, V domains shown)
VH: B14 VH
VL: SYVLTQPLSVSVAPGQTARITCGGNNIGRKSVHWYQQKPGQAPVLVIYRDSNRPSGIPERFSGSNSGNTATLTISRAQAGDEADYYCQVWDSSTVVFGGGTKLTVLG
notes: human IgG1
B18: anti-mutCALR antibody clone 44 (antibody, human IgG1, lambda, V domains shown)
VH: B14 VH
VL: B14 VL with V12A, T21S, G28R, P39A, R51S, S93N, A95V
notes: human IgG1
B19: anti-mutCALR antibody clone 38 (antibody, human IgG1, kappa, V domains shown)
VH: EVQPVQSGAEVKKPGSSVKVSCKASGGTFSSYAISWVRQAPGQGLEWMGLVDPEDGETIYAEKFRGRVTITADTSTDTAYMELSSLRSEDTAVYYCATEESYGPWGQGTLVTVSS
VL: DIQLTQSPSSLSASVGDRVTITCQASQDISNYLNWYQQKPGKAPKLLIYDASNLETGVPSRFSGSGSGTEFTLTISSLQPEDFATYYCQQLNSYPLTFGGGTKLEIKR
notes: human IgG1
B20: anti-mutCALR antibody clone 39 (antibody, human IgG1, kappa, V domains shown)
VH: B19 VH with P4L, R65Q
VL: B19 VL with N34D
notes: human IgG1
B21: anti-mutCALR antibody clone 52 (antibody, human IgG1, kappa, V domains shown)
VH: EVQLVQSGAEVKKPGASVKVSCKVSGYTLTELSMHWVRQAPGKGLEWMGLVDPEDGETIYAEKFQGRVTITADTSTDTAYMELSSPRSEDTAVYYCATTIGDDYFDYWGQGTLVTVSS
VL: not shown
notes: human IgG1

Biological target: T1, Recombinant MBP-mutCALR Type 1 fusion protein (human)
T1 construct: custom made at Cepter; also called recombinant mutCALR protein
Experiment: SPR, IgG captured, 1:1 fit, Exp. 1
Protocol: Experiment 1: Recombinant MBP-mutCALR Type 1 fusion protein was custom made at Cepter (cepterbiopartners.com). Data for the interaction of antibodies with recombinant MBP-mutCALR Type 1 fusion protein were collected at 25° C. on a Biacore 8K instrument (Cytiva, Marlborough, Mass.), and all reagents were obtained from Cytiva unless otherwise specified. The experiments were conducted using Tris-buffered saline (pH 7.2), 0.005% Surfactant P20, 1 mM CaCl₂) as running buffer. To prepare the capture surfaces, anti-human IgG (Fc) antibodies (Product #29234600) was amine-coupled onto a CM4 chip (Product #BR100534) under standard conditions using an Amine Coupling Kit (Product #BR100050). […] The kinetics parameters were obtained by applying 1:1 binding model to fit the data from multiple-cycle injection experiments using Biacore Insight Evaluation software.

B1 and B2 are within 1.5-fold of each other in Kd: 12.6 nM for the first, 9.84 nM for the second.

Compared with B3, B4 is 4.5-fold lower in Kd: 19.5 nM for the first, 4.37 nM for the second.

B5 and B6 are within 1.5-fold of each other in Kd: 7.62 nM for the first, 10.2 nM for the second.

Compared with B7, B8 is 1.9-fold higher in Kd: 6.64 nM for the first, 12.8 nM for the second.

B9 and B10 are within 1.5-fold of each other in Kd: 8.16 nM for the first, 9.63 nM for the second.

Going from B11 to B12, the Kd rises from 9.88 nM to 16.2 nM (1.6-fold).

First: B13
Second: B14
The Kd of the first is 1.7-fold higher: 2.82 nM for the first, 1.64 nM for the second. The second binds more tightly here.

B15 and B16 are within 1.5-fold of each other in Kd: 3.61 nM for the first, 3.62 nM for the second.

B17 and B18 are within 1.5-fold of each other in Kd: 5.13 nM for the first, 3.84 nM for the second.

First: B19
Second: B20
The Kd of the first is 2.7-fold lower: 2.1 nM for the first, 5.59 nM for the second.

B21 showed a Kd of 1.76 nM.

Going from B1 to B2, the koff rises from 0.00289 s⁻¹ to 0.00471 s⁻¹ (1.6-fold).

Going from B3 to B4, the koff falls from 0.00897 s⁻¹ to 0.00343 s⁻¹ (2.6-fold).

First: B5
Second: B6
The koff of the first is 2.6-fold lower: 0.00199 s⁻¹ for the first, 0.00524 s⁻¹ for the second.

B7 and B8 are within 1.5-fold of each other in koff: 0.00389 s⁻¹ for the first, 0.00295 s⁻¹ for the second.

Going from B9 to B10, the koff falls from 0.00561 s⁻¹ to 0.00366 s⁻¹ (1.5-fold).

Going from B11 to B12, the koff rises from 0.00212 s⁻¹ to 0.0126 s⁻¹ (5.9-fold).

Going from B13 to B14, the koff falls from 0.00599 s⁻¹ to 0.000297 s⁻¹ (20-fold).

B15 and B16 are within 1.5-fold of each other in koff: 0.000669 s⁻¹ for the first, 0.000772 s⁻¹ for the second.

B17 and B18 are within 1.5-fold of each other in koff: 0.0011 s⁻¹ for the first, 0.00101 s⁻¹ for the second.

B19 and B20 are within 1.5-fold of each other in koff: 0.00268 s⁻¹ for the first, 0.0018 s⁻¹ for the second.

Going from B1 to B2, the kon rises from 229000 M⁻¹ s⁻¹ to 478000 M⁻¹ s⁻¹ (2.1-fold).

Compared with B3, B4 is 1.7-fold higher in kon: 460000 M⁻¹ s⁻¹ for the first, 785000 M⁻¹ s⁻¹ for the second.

Going from B5 to B6, the kon rises from 261000 M⁻¹ s⁻¹ to 514000 M⁻¹ s⁻¹ (2-fold).

Compared with B7, B8 is 2.5-fold lower in kon: 585000 M⁻¹ s⁻¹ for the first, 231000 M⁻¹ s⁻¹ for the second.

Going from B9 to B10, the kon falls from 688000 M⁻¹ s⁻¹ to 380000 M⁻¹ s⁻¹ (1.8-fold).

First: B11
Second: B12
The kon of the first is 3.6-fold lower: 215000 M⁻¹ s⁻¹ for the first, 775000 M⁻¹ s⁻¹ for the second.

First: B13
Second: B14
The kon of the first is 12-fold higher: 2.13e+06 M⁻¹ s⁻¹ for the first, 181000 M⁻¹ s⁻¹ for the second.

B15 and B16 are within 1.5-fold of each other in kon: 185000 M⁻¹ s⁻¹ for the first, 213000 M⁻¹ s⁻¹ for the second.

B17 and B18 are within 1.5-fold of each other in kon: 214000 M⁻¹ s⁻¹ for the first, 263000 M⁻¹ s⁻¹ for the second.

Going from B19 to B20, the kon falls from 1.28e+06 M⁻¹ s⁻¹ to 322000 M⁻¹ s⁻¹ (4-fold).
